According to patent US20130036481A1:

Target: α2β1 integrin on human cortical neurons (human) (UniProt P17301)
Assay: cell-based or functional assay

Substance | EC50 of domain V inhibition of Aβ toxicity in human cortical neurons, domain V alone (FIG. 4) | EC50 of domain V inhibition of Aβ toxicity in human cortical neurons, in the presence of a mouse IgG control or the α2 antibodies 1950 and 1998 | EC50 of domain V inhibition of Aβ toxicity in human cortical neurons, in the presence of the αV integrin antibody | EC50 of domain V inhibition of Aβ toxicity in human cortical neurons, in the presence of the β1 integrin antibody | average EC50 of domain V inhibition of Aβ40 toxicity in human cortical neurons (alamarBlue viability, n=5 experiments) | EC50 of LG3 inhibition of Aβ40 toxicity in human cortical neurons (alamarBlue viability)
Human perlecan Domain V, recombinant, C-terminal 6xHis tag (from UniProt P98160 3687-4391) (ligand) | 123 nM | 98 nM | 47 nM | < 38 nM | 164 nM | 
LG3 C-terminal domain of human perlecan Domain V (amino acids 4188-4391), C-terminal 6xHis tag (from UniProt P98160 4188-4391) (ligand) |  |  |  |  |  | 50 nM
